Source: patent publication US20220380459A1 (DRAGONFLY THERAPEUTICS, published 2022)
Where a chain is given by its changes, count along the chain named.

B1: ADI-11776 Fab (Fab, V domains shown)
VH: EVQLLESGGGLVQPGGSLRLSCAASGFTFSKYTMSWVRQAPGKGLEWVSAIVGSGESTYFADSVKGRFTISRDNSKNTLYLQMNSLRAEDTAVYYCAREGGPYYDSSGYFVYYGMDVWGQGTTVTVSS
VL: DIQMTQSPSTLSASVGDRVTITCRASQSISSWLAWYQQKPGKAPKLLIYKASSLESGVPSRFSGSGSGTEFTLTISSLQPDDFATYYCQQYDDLPTFGGGTKVEIK
notes: Fab fragment; also called Ab3; H76
B2: ADI-11819 Fab (Fab, V domains shown)
VH: EVQLVESGGGLVKPGGSLRLSCAASGFTFSSYAMSWVRQAPGKGLEWVSSISSSSEGIYYADSVKGRFTISRDNAKNSLYLQMNSLRAEDTAVYYCAREGGPYYDSSGYFVYYGMDVWGQGTTVTVSS
VL: B1 VL with Q27N, K50E, L54T, E55K
notes: Fab fragment; also called Ab8
B3: ADI-11807 Fab (Fab, V domains shown)
VH: EVQLVESGGGLVQPGGSLRLSCAASGFTFGSYWMSWVRQAPGKGLEWVATIKQDGSEKSYVDSVKGRFTISRDNAKNSLYLQMNSLRAEDTAVYYCARPLNAGELDVWGQGTMVTVSS
VL: DIQMTQSPSTLSASVGDRVTITCRASQSISSWLAWYQQKPGKAPKLLIYEASSLESGVPSRFSGSGSGTEFTLTISSLQPDDFATYYCQQSQSYPPITFGGGTKVEIK
notes: Fab fragment; also called Ab5; I07
B4: ADI-11809 Fab (Fab, V domains shown)
VH: B3 VH with G30P, Q53R, S59G
VL: B3 VL
notes: Fab fragment; also called Ab6
B5: ADI-10158 Fab (Fab, V domains shown)
VH: QVQLQQWGAGLLKPSETLSLTCAVYGGSFSGYYWSWIRQPPGKGLEWIGEIDHSGSTNYNPSLKSRVTISVDTSKNQFSLKLSSVTAADTAVYYCARQGIHGLRYFDLWGRGTLVTVSS
VL: EIVMTQSPATLSLSPGERATLSCRASQSVSSYLAWYQQKPGQAPRLLIYDASNRATGIPARFSGSGSGTDFTLTISSLEPEDFAVYYCQQDHNFPYTFGGGTKVEIK
notes: Fab fragment; also called Ab14
B6: ADI-10168 Fab (Fab, V domains shown)
VH: QVQLVQSGAEVKKPGSSVKVSCKASGGTFSSYAISWVRQAPGQGLEWMGSIIPIFGTANYAQKFQGRVTITADESTSTAYMELSSLRSEDTAVYYCAREVGYGWYTKIAFDIWGQGTMVTVSS
VL: B5 VL with M4L, N53K, D91S, H92S, F94H, Y96S
notes: Fab fragment; also called Ab21
B7: ADI-10165 Fab (Fab, V domains shown)
VH: EVQLVESGGGLVQPGGSLRLSCAASGFTFSSYWMSWVRQAPGKGLEWVANIKQDGSEKYYVDSVKGRFTISRDNAKNSLYLQMNSLRAEDTAVYYCARDVGPGIAYQGHFDYWGQGTLVTVSS
VL: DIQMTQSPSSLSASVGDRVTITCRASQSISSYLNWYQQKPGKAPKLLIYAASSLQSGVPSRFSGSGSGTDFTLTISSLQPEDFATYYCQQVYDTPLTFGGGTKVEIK
notes: Fab fragment; also called Ab19
B8: Lintuzumab (antibody, V domains shown)
VH: QVQLVQSGAEVKKPGSSVKVSCKASGYTFTDYNMHWVRQAPGQGLEWIGYIYPYNGGTGYNQKFKSKATITADESTNTAYMELSSLRSEDTAVYYCARGRPAMDYWGQGTLVTVSS
VL: DIQMTQSPSSLSASVGDRVTITCRASESVDNYGISFMNWFQQKPGKAPKLLIYAASNQGSGVPSRFSGSGSGTDFTLTISSLQPDDFATYYCQQSKEVPWTFGQGTKVEIK
notes: IgG; also called lintuzumab IgG
B9: ADI-11839 IgG (antibody, V domains shown)
VH: QVQLVQSGAEVKKPGASVKVSCKASGYTFSNYYMHWVRQAPGQGLEWMGWINPFSGGTRYAQKFQGRVTMTRDTSTSTVYMELSSLRSEDTAVYYCARDVGSSAYYYMDVWGKGTTVTVSS
VL: DIQMTQSPSSVSASVGDRVTITCEASKGISSWLAWYQQKPGKAPKLLIYAASDLQSGVPSRFSGSGSGTDFTLTISSLQPEDFATYYCQQAFLFPPTFGGGTKVEIK
notes: IgG; also called Ab28
B10: Fab fragment from Lintuzumab (Fab, V domains shown)
VH: B8 VH
VL: B8 VL
notes: Fab fragment

Biological target: T1, deglycosylated V domain of human CD33 (human, UniProt P20138 18-139, limits assumed, N-glycans removed by PNGase)
T1 construct: V domain deglycosylated by PNGase before testing; also called deglycosylated V CD33
Assay: SPR, Fab captured, 37C

Binder	Kd [nM]	koff [s⁻¹]	kon [M⁻¹ s⁻¹]	binding result
B1	0.28	0.00136	4.85e+06	
B2	0.11	0.00103	9.15e+06	
B3	0.19	0.000745	3.9e+06	
B4	0.21	0.000711	3.4e+06	
B5	88.1	0.231	2.63e+06	
B6				no binding
B7	156	0.203	1.3e+06	

Biological target: T2, V domain of human CD33 (human, UniProt P20138 18-139, limits assumed)
T2 construct: recombinant, fully glycosylated V domain; also called Human CD33 V domain
Assay: SPR, Fab captured, 37C

Binder	Kd [nM]	koff [s⁻¹]	kon [M⁻¹ s⁻¹]
B1	0.33	0.00143	4.52e+06
B2	0.14	0.000916	6.75e+06
B3	0.28	0.000847	3.07e+06
B4	0.3	0.000769	2.6e+06
B5	127	0.133	1.04e+06

Biological target: T3, human CD33 extracellular domain (human, UniProt P20138 18-259)
T3 construct: soluble monomeric ECD; also called human CD33 ECD; hCD33
Assay: SPR, Fab captured, 37C
Procedure: (§1) Kinetics and affinity of a series of Fab fragments of anti-CD33 antibodies with different CD33 variants (human CD33 ECD, cyno CD33 ECD, V-domain of human CD33, C-domain or human CD33 and selected CD33 SNPs) were assessed by surface plasmon resonance using Biacore 8K instrument (GE Healthcare). Anti-Fab antibody was immobilized on a CMS chip using standard amine coupling chemistry. CD33 FABs were captured on the anti-Fab chip at a density of ˜100 RU. Solutions containing different concentrations of soluble monomeric CD33 or its domains were injected over the captured FABs and control surfaces at 30 μl/min at 37° C. Surfaces were regenerated between cycles by quick injection of 10 mM glycine, pH 1.8. To obtain kinetic rate constants double-referenced data were fit to a 1:1 interaction model using Biacore 8K Evaluation software (GE Healthcare). The equilibrium binding constant KD was determined by the ratio of binding rate constants kd/kₐ.

Binder	Kd [nM]	koff [s⁻¹]	kon [M⁻¹ s⁻¹]
B1	0.78	0.00124	1.6e+06
B2	0.02	5.65e-05	2.84e+06
B3	0.29	0.000332	1.14e+06
B4	0.0012	1.23e-06	1.02e+06

Biological target: T2, V domain of human CD33
Assay: SPR, Fab captured, 37C
Remark: another data set of the same source
Procedure: as §1

Binder	Kd [nM]	koff [s⁻¹]	kon [M⁻¹ s⁻¹]	binding result
B1	0.33	0.00143	4.52e+06	
B2	0.14	0.000916	6.75e+06	
B3	0.28	0.000847	3.07e+06	
B4	0.3	0.000769	2.6e+06	
B5	127	0.133	1.04e+06	
B6				no binding

Biological target: T3, human CD33 extracellular domain
Assay: BLI Octet, IgG loaded;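 also: IgGs captured on AHC biosensors, exposed to 100 nM antigen for 3 min association then 3 min dissociation in buffer, kinetics fitted with a 1:1 binding model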
Procedure: Briefly, ForteBio affinity measurements were performed by loading IgGs on-line onto AHC sensors. Sensors were equilibrated off-line in assay buffer for 30 min and then monitored on-line for 60 seconds for baseline establishment. Sensors with loaded IgGs were exposed to 100 nM antigen for 3 minutes, and afterwards were transferred to assay buffer for 3 min for off-rate measurement. All kinetics were analyzed using the 1:1 binding model.

Binder	Kd [nM]	koff [s⁻¹]	kon [M⁻¹ s⁻¹]
B8	2.21	0.000952	431000
B9	2.45	0.00172	704000

Biological target: T4, C domain of human CD33 (human, UniProt P20138 140-259, limits assumed)
T4 construct: recombinant C domain
Assay: SPR, Fab captured, 37C
Procedure: as §1
The binding interface between the Fab fragment of each CD33 antibody to CD33 was mapped.

Binder	binding result
B1	no binding
B2	no binding
B3	no binding
B4	no binding
B5	no binding
B6	no binding
B7	no binding

Biological target: T5, cyno CD33 extracellular domain (Cynomolgus/Rhesus (cyno))
T5 construct: soluble monomeric ECD; also called cyno CD33 ECD
Assay: SPR, Fab captured, 37C
Procedure: as §1
(§2) Affinity of 29 Fab fragments binding to human and cyno CD33 ECD were assayed by Biacore analysis.

Binder	binding result	Kd [nM]	koff [s⁻¹]	kon [M⁻¹ s⁻¹]
B10	no binding (tested: 100 nM)			
B1		1.81	0.00472	2.62e+06
B2		4.96	0.019	3.82e+06
B3		0.15	0.000151	998000
B4		0.118	0.000126	1.06e+06
B5	no binding (tested: 100 nM)			
B6	no binding (tested: 100 nM)			
B7	no binding (tested: 100 nM)			

Biological target: T3, human CD33 extracellular domain
Assay: SPR, Fab captured, 37C
Remark: another data set of the same source
Procedure: as §1, §2

Binder	Kd [nM]	koff [s⁻¹]	kon [M⁻¹ s⁻¹]
B10	16.7	0.0122	735000
B1	0.78	0.00124	1.6e+06
B2	0.02	5.65e-05	2.84e+06
B3	0.29	0.000332	1.14e+06
B4	0.0012	1.23e-06	1.02e+06

Biological target: T3, human CD33 extracellular domain
Assay: SPR, Fab captured, 37C
Remark: another data set of the same source
Procedure: as §1, §2

Binder	Kd [nM]	koff [s⁻¹]	kon [M⁻¹ s⁻¹]
B1	0.78	0.00124	1.6e+06
B2	0.02	5.65e-05	2.84e+06
B3	0.29	0.000332	1.14e+06
B4	0.0012	1.23e-06	1.02e+06
